Here are results for 41 sequences from the nanobody polyreactivity screen of Harvey et al. (2022).

The nature of this data set: yeast display, Sf9 membrane polyspecificity reagent, FACS + sequencing; frameworks hold sequencing errors. The gist of the method: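 Nanobodies came from a synthetic yeast display library in Saccharomyces cerevisiae BJ5465, induced with galactose for 36–48 hours and stained for 1 hour at 4 °C with 10% biotinylated, detergent-solubilized Sf9 membrane reagent. Cells were enriched on streptavidin microbeads and then FACS-sorted, with low and high (top ~1%) gates set on anti-HA fluorescence for expression and streptavidin fluorescence for reagent binding. Each polyreactivity label reflects the gate a clone came from. Genes were amplified by colony PCR, sequenced by MiSeq 2 × 250 and filtered by CDR length.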
With “QVQLVESGGGLVQAGGSLRLSCAASGRIFYVYGMGWYRQAPGKERELVAAISKRGDNTYYADSVKGRFTISRDNAKNTVYLQMNSLKPEDTAVYYCAAKYNYSPRAGFNFWGQGTQVTVSS”, the “polyreactivity (PSR sort gate)” value is given as “high polyreactivity”.

With “QVQLVESGGGLVQAGGSLRLSCAASGRIFYWNTMGWYRQAPGKEREFVAAILSRGDTTYYADSVKGRFTISRDNAKNTVYLQMNSLKPEDTAVYYCAARPVRYHYVPSMYYWGQGTQVTVSS”, the “polyreactivity (PSR sort gate)” value was “high polyreactivity”.

Consider “QVQLVESGGGLVQAGGSLRLSCAASGRIFYWYAMGWYRQAPGKERELVATINSGGSTTYADSVKARFTISRDNAKNTVYLQMNSLKPEDTAVYYCARQRTVKKYYNWGQGTQVTVSS”, for which the “polyreactivity (PSR sort gate)” value is “high polyreactivity”.

For “QVQLVESGGGLVQAGGSLRLSCAASGRIFYWYVMGWYRQAPGKERELVASISWSGGSTYYADSVKGRFTISRDNAKNTVYLQMNSLKPEDTAVYYCNAGSVYTVSLPGHPYDYWGQGTQVTVSS”, the “polyreactivity (PSR sort gate)” value is “low polyreactivity”.

“QVQLVESGGGLVQAGGSLRLSCAASGRIFYWYVMGWYRQAPGKERELVATIRYSGGNTYYADSVKGRFTISRDNAKNTVYLQMNSLKPEETEVYYCAAGSLYWGRSPTRGGQGGYWGQGTQVTVSS”: the “polyreactivity (PSR sort gate)” value was “high polyreactivity”.

In the case of “QVQLVESGGGLVQAGGSLRLSCAASGRIFYYNAMGWYREAPGKERELVAVITRSGGRTFYADSVKGRFTISRDNAKNTVYLQMNSLKPEDTAVYYCAARYRYYPVTTRGYYWGQGTQVTVSS”, the “polyreactivity (PSR sort gate)” value is recorded as “high polyreactivity”.

As to “QVQLVESGGGLVQAGGSLRLSCAASGRIFYYNAMGWYRPAPGKERELVAAITGDGTTDYADSVKGRFTISRDNAKNTVYLQMNSLKPEDTAVYYCNAPFRYVPPEGSGPYDYWGQGTQVTVSS”, the “polyreactivity (PSR sort gate)” value was “low polyreactivity”.

“QVQLVESGGGLVQAGGSLRLSCAASGRIFYYNAMGWYRQAHGKERELVAAISFSDGSTYYADSVKGRFTISRDNAKNTVYLQMNSLKPEDTAVYYCAADIGYDYDYWGQGTQVTVSS”: the “polyreactivity (PSR sort gate)” value is given as “low polyreactivity”.

For “QVQLVESGGGLVQAGGSLRLSCAASGRIFYYNAMGWYRQAPGKERELVAAISGSGGRTYYADSVKGRFTISRDNAKNTVYLQMNSLKPEDTAVYYCAAAGYDSNGRYWGQGTQVTVSS”, the “polyreactivity (PSR sort gate)” value is “high polyreactivity”.

On to “QVQLVESGGGLVQAGGSLRLSCAASGRIFYYNAMGWYRQAPGKERELVAAITSGGSTNYADSVKGRFTISPDNAKNTVYLQMNSLKPEDTAVYYCNARRYGSPRSEVHYDYCGQGTQVTVSS”, for which the “polyreactivity (PSR sort gate)” value is given as “low polyreactivity”.

On to “QVQLVESGGGLVQAGGSLRLSCAASGRIFYYNAMGWYRQAPGKERELVAAITSVGSTNYADSVKGSFTISRDNAKNTVYLQMNSLKPEDTAVYYCARASAWYVTLVGKYTKYDYWGQGTQVTVSS”, for which the “polyreactivity (PSR sort gate)” value is given as “low polyreactivity”.

Turning to “QVQLVESGGGLVQAGGSLRLSCAASGRIFYYNTMGWYRQAPGKERELVAAITRSGGSTYYADSVKGRFTISRDNAKNTVYLQMNSLKPEDTAVYYCAARSTHPGSVGYWGQGTQVTVSS”, the “polyreactivity (PSR sort gate)” value is given as “high polyreactivity”.

In the case of “QVQLVESGGGLVQAGGSLRLSCAASGRIFYYNTMGWYRQAPGKESELVAAISWSGGSTFYADSVKGRFTISRDNAKNTVYLQMNSLKPEDTAVYYCARYKLRSGRSGDHDDYWGQGTQVTVSS”, the “polyreactivity (PSR sort gate)” value is reported as “high polyreactivity”.

With “QVQLVESGGGLVQAGGSLRLSCAASGRIFYYYAMGWYRQAPGKERELVAAISWSGGSTYYADSVKGRFTISRDNAKNTVYLQMNSLKPEDTAVYYCAAESRKYREYYFWGQGTQVTVSS”, the “polyreactivity (PSR sort gate)” value was “high polyreactivity”.

On to “QVQLVESGGGLVQAGGSLRLSCAASGRIFYYYAMGWYRQAPGKERELVAAITRRGGSTYYADSVKGRFTISRDNAKNTVYLQMNSLKPEDTAVYYCAKPDRTGWLDGDYWGQGTQVTVSS”, for which the “polyreactivity (PSR sort gate)” value is “low polyreactivity”.

Turning to “QVQLVESGGGLVQAGGSLRLSCAASGRIFYYYAMRWYRQAPGKERELVATISGIGGSTYYADSVKGRFTISRDNAKNTVYLHMNSLKPEDTAVYYCNADYPTSYPLLKSGFDYWGQGTQVTVSS”, the “polyreactivity (PSR sort gate)” value was “low polyreactivity”.

Regarding “QVQLVESGGGLVQAGGSLRLSCAASGRIFYYYDMGWYRQAPGKERELVATMSGIGGSTYYADSVKGLFTISRDHAKNTVYLQMNSLKPEDTAVYYCNADYPTSYPLFKTGFDYWGQGTQVTVSS”, the “polyreactivity (PSR sort gate)” value is recorded as “low polyreactivity”.

On to “QVQLVESGGGLVQAGGSLRLSCAASGRIFYYYTMGWYRQAPGKERELVAALTRSGSSTYADSVKGRFTISRDNAKNTVYLQMNSLKAEVTAVYYCAADYIRRYDYWGQGTQVTVSS”, for which the “polyreactivity (PSR sort gate)” value is “low polyreactivity”.

In the case of “QVQLVESGGGLVQAGGSLRLSCAASGRIGYNVMGWYRPAPGKERELVADISRGGGRTYYADSVKGRFTISRDNAKNTVYLQMNSLKPEDTAVYYCNAVTYYVDGGWYDYDYWGQGTQVTVSS”, the “polyreactivity (PSR sort gate)” value is reported as “high polyreactivity”.

“QVQLVESGGGLVQAGGSLRLSCAASGRIGYYAMGWNRQAPGKERELVAAISYGGGSTYYADSVKGRFTISRDNAKNTVYLLMNSLKPEDTAVYYCAARWGKSWRGYGYWGQGTQVSVSS”: the “polyreactivity (PSR sort gate)” value is “high polyreactivity”.

For “QVQLVESGGGLVQAGGSLRLSCAASGRIGYYAMGWYRQAPGKERELVAAISYGGGSTYYADSVKGRFTISRDNAKNTVYLQMNSLKPEDTAVYYCAARWGISWRGYGYWGQGTQVTVSS”, the “polyreactivity (PSR sort gate)” value is “high polyreactivity”.

With “QVQLVESGGGLVQAGGSLRLSCAASGRIIAGYAMGLYRQAPGKERELVAAISSGGSTYYADSVKGRFTISRDNAKNTVYLQMNSLKPSDTAVYYCAAGGPRVYGTKFYYCGQGTQVTVSS”, the “polyreactivity (PSR sort gate)” value is listed as “high polyreactivity”.

As to “QVQLVESGGGLVQAGGSLRLSCAASGRIIDNNAMGWYRPAPGKERQLVAAISWSGTSTYYADSVKGRFTISRDHAKNTVYLQMNSLKPEDTAVYYCNADSWFYTRFDYWGQGTQVTVSS”, the “polyreactivity (PSR sort gate)” value was “high polyreactivity”.

For “QVQLVESGGGLVQAGGSLRLSCAASGRIIGFNAMGWYIQAPAKERELVASIRTTGGSTRYADSVKWRFTISRDNATNTVYLQMNSLKPEDTAVYYCADRWCKTLWQYNYWGQGTQVTVSS”, the “polyreactivity (PSR sort gate)” value is listed as “high polyreactivity”.

Regarding “QVQLVESGGGLVQAGGSLRLSCAASGRIIGQYAMGWYRQAPGKERELVAAITQRGGSTYYADSVKGRFTISRDNAKNTVYLLMNCLKPEDTAVYYCNKRYRFTGIRDPFDYWGQGTQVTVSS”, the “polyreactivity (PSR sort gate)” value was “low polyreactivity”.

Turning to “QVQLVESGGGLVQAGGSLRLSCAASGRIIGRYAMGWYRQAPGKERELVAGITIRGGSTYYADSVKGRITISRDNAKNTVYLQMNSLKPEDTAVYYCAADDKGGLAVEYDYWGQGTQVTVSS”, the “polyreactivity (PSR sort gate)” value is on record as “low polyreactivity”.

As for “QVQLVESGGGLVQAGGSLRLSCAASGRIIGSNTMGWYRQAPGKEREFVATISSSGGSTYYADSVKGRFTISRDNAKNTVYLQMNSLKPEDTAVYYCNTRRRYPFRPYPEWRNYYWGHGTQVTVSS”, the “polyreactivity (PSR sort gate)” value is “high polyreactivity”.

Take “QVQLVESGGGLVQAGGSLRLSCAASGRIIKFYAMGWYRQAPGKERELVAVIRSGTRTKYADSVKGRFTISRDNAKNTVYLQMNSLKPVDTAVYYCIRYFSEALLHGSSYNRYYYWGQGTQVTVSS”: the “polyreactivity (PSR sort gate)” value is given as “low polyreactivity”.

Take “QVQLVESGGGLVQAGGSLRLSCAASGRIIQRYAMGWYRQAPGKERELVATITFNTASTYYADSVKGRFTISRDNAQNTVYLQMNSLKPEDTAVYYCAAKHRGGYGYWGQGTQVTVSS”: the “polyreactivity (PSR sort gate)” value is reported as “high polyreactivity”.

For “QVQLVESGGGLVQAGGSLRLSCAASGRIIRYYAMGWYRQAPGKERELVAAISKSGGSTYYADSVKGRFTISRDNAKNTVYLQMNSMKREDTAVFFCAAGTSRYVYHSYGKYEYWGQGTQVTVSS”, the “polyreactivity (PSR sort gate)” value is reported as “high polyreactivity”.

On to “QVQLVESGGGLVQAGGSLRLSCAASGRIIRYYAMGWYRQAPGKERELVATISRSGGSTFYADSVKGRFTISRDNAKNTVYLQMNSLKPEDTAVYYCNARYQTGGYGYWGQGTQVTVSS”, for which the “polyreactivity (PSR sort gate)” value was “high polyreactivity”.

As to “QVQLVESGGGLVQAGGSLRLSCAASGRIIRYYAMGWYRQAPGKETELVAITSSGGRTYYADSVKGRFTISRDNAKNTVYLQMNSLKPEDTAVYYCAVDAHWPGRGERFIRLDYWGQGTQVSVSS”, the “polyreactivity (PSR sort gate)” value was “low polyreactivity”.

For the sequence “QVQLVESGGGLVQAGGSLRLSCAASGRIISRYAMGWYRQAPGKERELVATITWSTTSTYYADSVKGRFTISRDNAKNTVYLQMNSLKPEDTAVYYCAASIIPGFRRDPFGYWGQGTQVTVSS”, the “polyreactivity (PSR sort gate)” value is “low polyreactivity”.

Take “QVQLVESGGGLVQAGGSLRLSCAASGRIITKYTMGWYRQAPGKVRELVAAISRSDRTNYADSVKGRFTISRDNAKNTVYLQMNSLKPEDTAVYYCNARHSYWTGRRVTDDYDYRGQGTQVTVSS”: the “polyreactivity (PSR sort gate)” value is “high polyreactivity”.

As for “QVQLVESGGGLVQAGGSLRLSCAASGRIITTYAMGWYRQAPGKERELVAAISRSSGSTYYADSVKGRFTISRDNAKNTVYLQMNSLKPEDTAVYYCNAYQRKSGRYDYWGQGTQVTVSS”, the “polyreactivity (PSR sort gate)” value is recorded as “high polyreactivity”.

In the case of “QVQLVESGGGLVQAGGSLRLSCAASGRIITWYAMGCYRQAPGKERELVAAISWSGGSTYYADSVTGRFTISRDNAKNTVYLQMNSLKPEDTAVYYCNKVTVTGLYDYWGQGTQVTVSS”, the “polyreactivity (PSR sort gate)” value is “high polyreactivity”.

Take “QVQLVESGGGLVQAGGSLRLSCAASGRIIVKYAMRSYRQAPGKERELVAAITNSGGRTYYAACVKGRFTISRDNAKNTVYFQMNSLKPEDTAVYYCAALFHASTRQMDYWGQGTQVTVSS”: the “polyreactivity (PSR sort gate)” value is “high polyreactivity”.

In the case of “QVQLVESGGGLVQAGGSLRLSCAASGRIIVLYAMGWYRQAPGKERELVASIRSGGSTNYADSVKGRFTISRDNAKNTVYLQMNSLKPEDTAVYYCAARIRSVVPFDMDYWGQGTQVTVSS”, the “polyreactivity (PSR sort gate)” value is reported as “low polyreactivity”.

For the sequence “QVQLVESGGGLVQAGGSLRLSCAASGRIIVLYAMGWYRQAPGKERELVASIRSGGSTNYADSVKGRFTISRDNAKNTVYLQMNSLKPEDTAVYYCAARPDHKRYDYWGQGTQVTVSS”, the “polyreactivity (PSR sort gate)” value was “low polyreactivity”.

Consider “QVQLVESGGGLVQAGGSLRLSCAASGRIIVPYVMGWYRLAPGKERELVAAISTSGTSTYYADSVKGRFTISRDNAKNTVYLQMNSLKPEDTAVYYCAKRSGARHRLMDYWGQGTQVTVSS”, for which the “polyreactivity (PSR sort gate)” value is recorded as “low polyreactivity”.

Take “QVQLVESGGGLVQAGGSLRLSCAASGRIIYTNALGWYRQAPGKERELVAAINRSGGITYYADSVKGRFTISRDNAKNTVYLQMNSLKPEDTAVYYCAKDYSWASYNHDYWGQGTQVTVSS”: the “polyreactivity (PSR sort gate)” value is reported as “low polyreactivity”.
